Measurements taken from patent US10500249B2, “Compositions and methods for preventing or treating diseases, conditions, or processes characterized by aberrant fibroblast proliferation and extracellular matrix deposition” (MOERAE MATRIX, INC., priority 2014, dated 2019).

How the values were obtained:
Test in all cases: Kinase Profiling Assay
Type in all cases: biochemical
Conditions in all cases: 100 μM
EphB4 (h) = molecular target: T1, EphB4 (h) (Homo sapiens, UniProt P54760)
T1 sequence (P54760 16-987): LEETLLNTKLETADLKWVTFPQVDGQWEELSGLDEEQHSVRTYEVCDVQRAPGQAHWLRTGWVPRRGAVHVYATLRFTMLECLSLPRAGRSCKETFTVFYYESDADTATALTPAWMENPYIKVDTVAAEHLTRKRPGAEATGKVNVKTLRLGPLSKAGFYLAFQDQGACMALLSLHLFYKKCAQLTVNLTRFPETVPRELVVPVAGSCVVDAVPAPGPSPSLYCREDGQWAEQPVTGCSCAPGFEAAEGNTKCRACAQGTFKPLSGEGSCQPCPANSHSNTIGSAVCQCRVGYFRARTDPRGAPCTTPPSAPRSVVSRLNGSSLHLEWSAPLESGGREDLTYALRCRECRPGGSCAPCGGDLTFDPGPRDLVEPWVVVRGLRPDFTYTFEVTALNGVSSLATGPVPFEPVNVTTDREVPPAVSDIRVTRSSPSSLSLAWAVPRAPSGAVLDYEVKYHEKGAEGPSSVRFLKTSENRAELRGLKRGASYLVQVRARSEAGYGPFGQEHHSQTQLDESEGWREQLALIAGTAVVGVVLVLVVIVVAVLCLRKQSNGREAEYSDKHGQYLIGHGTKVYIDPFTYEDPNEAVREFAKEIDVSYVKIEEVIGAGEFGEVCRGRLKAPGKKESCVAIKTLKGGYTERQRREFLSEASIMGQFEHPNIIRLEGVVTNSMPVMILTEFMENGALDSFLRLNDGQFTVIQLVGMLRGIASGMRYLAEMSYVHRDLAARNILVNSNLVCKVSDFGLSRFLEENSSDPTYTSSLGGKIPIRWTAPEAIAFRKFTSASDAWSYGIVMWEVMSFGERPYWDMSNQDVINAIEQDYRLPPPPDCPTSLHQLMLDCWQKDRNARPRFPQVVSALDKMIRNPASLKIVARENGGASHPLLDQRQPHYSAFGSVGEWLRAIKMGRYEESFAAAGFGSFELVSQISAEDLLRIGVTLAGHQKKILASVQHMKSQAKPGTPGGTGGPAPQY
Method in brief: (§1)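 Specificity of MK2 inhibitory peptides is assessed against a panel of 266 human kinases. Kinase transfers a radiolabeled phosphate from ATP onto a positively charged substrate, which is trapped on a negatively charged filter and quantified by scintillation counting against full-activity control; duplicate determinations.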

Rsk4 (h) = Rsk4 (h) (Homo sapiens, UniProt Q9UK32)
Method in brief: as §1

EphA2 (h) = molecular target: T2, EphA2 (h) (Homo sapiens, UniProt P29317)
T2 construct: purchased Millipore
Method in brief: as §1

SRPK2 (h) = SRPK2 (h) (Homo sapiens, UniProt P78362)
Method in brief: as §1

Met(Y1248D) (h) = Met(Y1248D) (h) (Homo sapiens, UniProt P08581, Y1230D)
Method in brief: as §1

WNK2 (h) = WNK2 (h) (Homo sapiens, UniProt Q9Y3S1)
Method in brief: as §1

EphA7 (h) = EphA7 (h) (Homo sapiens, UniProt Q15375)
Method in brief: as §1

PKCζ (h) = molecular target: T3, PKCζ (h) (Homo sapiens, UniProt Q05513)
T3 sequence (Q05513 1-592): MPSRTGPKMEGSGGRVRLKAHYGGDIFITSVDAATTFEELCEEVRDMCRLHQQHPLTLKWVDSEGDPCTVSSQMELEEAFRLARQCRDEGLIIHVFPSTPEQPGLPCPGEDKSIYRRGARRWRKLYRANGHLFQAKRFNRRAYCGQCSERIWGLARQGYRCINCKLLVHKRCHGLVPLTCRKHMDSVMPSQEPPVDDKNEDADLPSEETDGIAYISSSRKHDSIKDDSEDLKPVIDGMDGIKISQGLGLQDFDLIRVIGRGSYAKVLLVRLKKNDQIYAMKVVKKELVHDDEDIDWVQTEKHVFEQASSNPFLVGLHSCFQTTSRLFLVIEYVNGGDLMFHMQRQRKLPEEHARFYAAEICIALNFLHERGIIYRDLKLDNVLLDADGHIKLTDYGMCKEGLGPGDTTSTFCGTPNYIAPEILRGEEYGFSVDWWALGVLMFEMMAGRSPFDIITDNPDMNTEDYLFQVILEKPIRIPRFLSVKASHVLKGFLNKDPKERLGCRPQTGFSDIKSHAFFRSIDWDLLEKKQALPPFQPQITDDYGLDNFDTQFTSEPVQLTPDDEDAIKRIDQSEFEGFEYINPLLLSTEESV
Method in brief: as §1

Hck (h) activated = molecular target: T4, Hck (h) activated (Homo sapiens, UniProt P08631)
T4 construct: purchased Millipore
Method in brief: as §1

Rsk2 (h) = Rsk2 (h) (Homo sapiens, UniProt P51812)
Method in brief: as §1

Arg (h) = Arg (h) (Homo sapiens, UniProt P42684)
Method in brief: as §1

TrkA (h) = TrkA (h) (Homo sapiens, UniProt P04629)
Method in brief: as §1

SAPK4 (h) = molecular target: T5, SAPK4 (h) (Homo sapiens, UniProt O15264)
T5 sequence (O15264 1-365): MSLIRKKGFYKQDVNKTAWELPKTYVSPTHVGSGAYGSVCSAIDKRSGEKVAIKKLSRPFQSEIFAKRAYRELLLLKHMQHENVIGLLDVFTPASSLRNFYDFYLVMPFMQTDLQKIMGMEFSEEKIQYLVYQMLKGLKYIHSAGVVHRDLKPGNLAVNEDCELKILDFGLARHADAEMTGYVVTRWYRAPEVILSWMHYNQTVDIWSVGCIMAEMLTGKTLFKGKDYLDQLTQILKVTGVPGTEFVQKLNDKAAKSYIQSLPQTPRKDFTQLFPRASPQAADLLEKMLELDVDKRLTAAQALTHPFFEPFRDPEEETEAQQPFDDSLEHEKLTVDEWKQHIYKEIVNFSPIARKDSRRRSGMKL
Method in brief: as §1

Rsk4 (h), sequence (Q9UK32 whole entry): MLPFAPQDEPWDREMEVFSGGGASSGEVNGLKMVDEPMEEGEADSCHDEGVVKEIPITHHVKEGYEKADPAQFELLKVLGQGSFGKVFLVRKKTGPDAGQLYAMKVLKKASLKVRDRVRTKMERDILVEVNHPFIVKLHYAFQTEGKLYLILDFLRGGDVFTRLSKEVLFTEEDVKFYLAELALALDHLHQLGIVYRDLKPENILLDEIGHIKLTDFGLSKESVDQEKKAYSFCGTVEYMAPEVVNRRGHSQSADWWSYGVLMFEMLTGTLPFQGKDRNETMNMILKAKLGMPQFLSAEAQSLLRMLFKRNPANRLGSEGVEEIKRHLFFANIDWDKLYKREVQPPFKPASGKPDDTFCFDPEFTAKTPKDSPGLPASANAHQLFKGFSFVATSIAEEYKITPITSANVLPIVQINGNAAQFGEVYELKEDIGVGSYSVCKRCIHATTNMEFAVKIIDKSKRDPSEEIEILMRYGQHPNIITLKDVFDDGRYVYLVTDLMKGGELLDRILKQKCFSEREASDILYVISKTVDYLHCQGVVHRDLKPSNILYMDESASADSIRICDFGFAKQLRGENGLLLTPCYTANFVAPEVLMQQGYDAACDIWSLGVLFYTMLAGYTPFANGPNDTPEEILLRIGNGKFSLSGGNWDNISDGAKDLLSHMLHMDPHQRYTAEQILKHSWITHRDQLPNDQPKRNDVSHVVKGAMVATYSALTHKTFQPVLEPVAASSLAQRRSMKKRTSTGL
T4 sequence (P08631 whole entry): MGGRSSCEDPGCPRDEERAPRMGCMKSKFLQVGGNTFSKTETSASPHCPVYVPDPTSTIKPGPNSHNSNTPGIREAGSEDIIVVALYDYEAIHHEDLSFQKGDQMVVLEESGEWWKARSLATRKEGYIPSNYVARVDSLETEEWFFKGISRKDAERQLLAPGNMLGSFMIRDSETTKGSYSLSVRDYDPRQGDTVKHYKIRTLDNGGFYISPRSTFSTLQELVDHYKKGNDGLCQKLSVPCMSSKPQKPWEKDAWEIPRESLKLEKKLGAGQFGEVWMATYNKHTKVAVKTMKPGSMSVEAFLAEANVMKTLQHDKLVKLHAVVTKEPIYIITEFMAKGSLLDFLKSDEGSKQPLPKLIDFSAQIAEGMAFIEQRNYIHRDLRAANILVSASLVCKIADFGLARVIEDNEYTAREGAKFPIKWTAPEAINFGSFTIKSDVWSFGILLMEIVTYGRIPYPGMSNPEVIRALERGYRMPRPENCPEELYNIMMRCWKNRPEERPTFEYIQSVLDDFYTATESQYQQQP
Rsk2 (h), sequence (P51812 whole entry): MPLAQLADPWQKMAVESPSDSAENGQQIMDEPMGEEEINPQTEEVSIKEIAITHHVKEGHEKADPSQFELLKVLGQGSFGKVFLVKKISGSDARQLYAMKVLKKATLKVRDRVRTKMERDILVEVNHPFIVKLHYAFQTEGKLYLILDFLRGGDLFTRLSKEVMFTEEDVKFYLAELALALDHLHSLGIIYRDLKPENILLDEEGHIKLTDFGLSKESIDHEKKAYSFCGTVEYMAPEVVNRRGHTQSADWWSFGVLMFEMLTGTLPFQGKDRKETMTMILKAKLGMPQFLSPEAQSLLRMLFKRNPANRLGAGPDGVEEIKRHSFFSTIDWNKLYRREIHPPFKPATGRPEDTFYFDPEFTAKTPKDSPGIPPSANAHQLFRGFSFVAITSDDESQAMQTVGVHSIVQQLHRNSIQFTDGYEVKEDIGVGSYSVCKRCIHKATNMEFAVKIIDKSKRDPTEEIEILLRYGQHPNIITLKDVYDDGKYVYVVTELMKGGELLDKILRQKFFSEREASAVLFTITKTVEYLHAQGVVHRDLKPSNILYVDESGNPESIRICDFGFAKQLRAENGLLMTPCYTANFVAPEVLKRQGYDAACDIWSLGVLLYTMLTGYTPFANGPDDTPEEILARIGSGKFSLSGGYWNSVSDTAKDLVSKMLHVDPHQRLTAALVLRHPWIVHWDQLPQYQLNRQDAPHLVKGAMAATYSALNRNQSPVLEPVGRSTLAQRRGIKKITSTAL
Arg (h), sequence (P42684 whole entry): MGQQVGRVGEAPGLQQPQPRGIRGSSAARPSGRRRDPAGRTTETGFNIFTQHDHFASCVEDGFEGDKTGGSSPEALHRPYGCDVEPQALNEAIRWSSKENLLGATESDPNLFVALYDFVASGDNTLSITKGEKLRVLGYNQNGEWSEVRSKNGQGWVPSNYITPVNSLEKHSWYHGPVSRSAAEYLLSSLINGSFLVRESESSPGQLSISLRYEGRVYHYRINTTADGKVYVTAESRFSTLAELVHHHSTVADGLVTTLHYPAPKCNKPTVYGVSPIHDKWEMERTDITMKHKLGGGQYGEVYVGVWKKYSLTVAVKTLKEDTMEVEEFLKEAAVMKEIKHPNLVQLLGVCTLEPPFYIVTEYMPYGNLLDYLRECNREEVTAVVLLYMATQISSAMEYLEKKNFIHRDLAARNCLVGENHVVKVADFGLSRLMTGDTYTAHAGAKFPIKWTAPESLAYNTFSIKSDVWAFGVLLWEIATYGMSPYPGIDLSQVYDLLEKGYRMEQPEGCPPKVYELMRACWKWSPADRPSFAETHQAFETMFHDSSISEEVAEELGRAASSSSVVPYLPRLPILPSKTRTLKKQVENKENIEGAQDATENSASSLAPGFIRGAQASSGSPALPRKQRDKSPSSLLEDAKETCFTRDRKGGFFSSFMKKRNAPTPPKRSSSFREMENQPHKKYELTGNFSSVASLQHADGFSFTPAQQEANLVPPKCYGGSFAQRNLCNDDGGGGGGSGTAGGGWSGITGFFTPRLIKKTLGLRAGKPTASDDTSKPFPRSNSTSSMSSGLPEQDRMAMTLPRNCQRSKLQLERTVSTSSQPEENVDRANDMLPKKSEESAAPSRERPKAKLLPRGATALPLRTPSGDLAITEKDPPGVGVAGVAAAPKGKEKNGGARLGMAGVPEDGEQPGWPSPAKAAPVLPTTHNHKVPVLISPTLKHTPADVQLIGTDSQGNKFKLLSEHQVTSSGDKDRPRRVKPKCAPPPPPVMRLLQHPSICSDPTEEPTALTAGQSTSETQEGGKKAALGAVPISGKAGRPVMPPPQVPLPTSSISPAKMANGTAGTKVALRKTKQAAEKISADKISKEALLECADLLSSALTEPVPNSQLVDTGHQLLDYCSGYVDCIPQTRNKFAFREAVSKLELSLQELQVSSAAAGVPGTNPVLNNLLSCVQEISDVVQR
SRPK2 (h), sequence (P78362 whole entry): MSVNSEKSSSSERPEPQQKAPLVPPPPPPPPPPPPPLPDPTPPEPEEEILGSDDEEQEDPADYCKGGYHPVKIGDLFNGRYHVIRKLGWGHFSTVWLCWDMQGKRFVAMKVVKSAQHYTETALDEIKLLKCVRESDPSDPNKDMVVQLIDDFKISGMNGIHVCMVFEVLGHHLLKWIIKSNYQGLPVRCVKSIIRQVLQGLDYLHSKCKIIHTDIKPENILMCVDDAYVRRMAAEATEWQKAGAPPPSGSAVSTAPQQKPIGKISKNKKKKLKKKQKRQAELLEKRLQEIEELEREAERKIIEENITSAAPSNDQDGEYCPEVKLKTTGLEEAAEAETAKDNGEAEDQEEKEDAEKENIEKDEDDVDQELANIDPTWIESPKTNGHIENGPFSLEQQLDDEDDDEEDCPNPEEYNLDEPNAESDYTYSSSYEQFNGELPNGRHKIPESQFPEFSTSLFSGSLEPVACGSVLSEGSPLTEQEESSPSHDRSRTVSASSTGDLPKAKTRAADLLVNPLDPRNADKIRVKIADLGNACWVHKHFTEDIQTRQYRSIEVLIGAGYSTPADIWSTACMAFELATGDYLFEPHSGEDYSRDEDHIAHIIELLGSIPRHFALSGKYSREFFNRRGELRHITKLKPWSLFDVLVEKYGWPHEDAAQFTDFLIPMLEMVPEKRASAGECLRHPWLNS
EphA7 (h), sequence (Q15375 28-998): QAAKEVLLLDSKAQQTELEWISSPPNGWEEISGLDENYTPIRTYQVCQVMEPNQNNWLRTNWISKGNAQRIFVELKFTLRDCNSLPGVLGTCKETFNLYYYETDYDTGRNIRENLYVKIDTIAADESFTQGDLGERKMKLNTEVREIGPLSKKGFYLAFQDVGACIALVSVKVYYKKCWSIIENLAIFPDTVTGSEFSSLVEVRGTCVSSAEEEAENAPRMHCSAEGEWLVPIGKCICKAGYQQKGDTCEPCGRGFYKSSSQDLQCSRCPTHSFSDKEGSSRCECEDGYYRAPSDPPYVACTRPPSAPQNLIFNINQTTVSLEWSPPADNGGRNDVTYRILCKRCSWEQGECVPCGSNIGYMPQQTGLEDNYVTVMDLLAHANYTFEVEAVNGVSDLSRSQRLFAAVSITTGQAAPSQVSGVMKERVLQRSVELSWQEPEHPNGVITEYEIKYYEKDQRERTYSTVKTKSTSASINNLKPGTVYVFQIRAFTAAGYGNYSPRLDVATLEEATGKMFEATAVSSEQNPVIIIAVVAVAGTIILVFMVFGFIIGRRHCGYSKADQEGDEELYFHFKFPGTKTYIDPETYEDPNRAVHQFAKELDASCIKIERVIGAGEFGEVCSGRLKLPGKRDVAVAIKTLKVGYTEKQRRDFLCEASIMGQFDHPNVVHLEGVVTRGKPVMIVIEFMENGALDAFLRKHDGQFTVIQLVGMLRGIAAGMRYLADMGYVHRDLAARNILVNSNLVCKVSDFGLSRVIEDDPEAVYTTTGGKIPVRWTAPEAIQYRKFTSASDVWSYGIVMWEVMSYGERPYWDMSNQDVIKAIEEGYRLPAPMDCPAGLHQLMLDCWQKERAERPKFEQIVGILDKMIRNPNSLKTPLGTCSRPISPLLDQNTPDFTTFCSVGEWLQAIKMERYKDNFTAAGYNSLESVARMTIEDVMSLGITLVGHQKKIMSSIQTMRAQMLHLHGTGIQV

Sequence	% activity (EphB4 (h)) [%]	% activity (Rsk4 (h)) [%]	% activity (EphA2 (h)) [%]	% activity (SRPK2 (h)) [%]	% activity (Met(Y1248D) (h)) [%]	% activity (WNK2 (h)) [%]	% activity (EphA7 (h)) [%]	% activity (PKCζ (h)) [%]	% activity (Hck (h) activated) [%]	% activity (Rsk2 (h)) [%]	% activity (Arg (h)) [%]	% activity (TrkA (h)) [%]	% activity (SAPK4 (h)) [%]
YARAAARQARAKALNRQLGVA (Mammalian) [MMI-0200]	131	125	95	100	118	94	220	98	100	101	82	–	–
HRRIKAWLKKIKALARQLGVAA (Mammalian) [MMI-0500]	38	29	–	80	218	8	189	7	67	14	22	24	48
FAKLAARLYRKALARQLGVAA [MMI-0300]	44	90	31	–	–	64	159	81	82	51	72	25	96
KAFAKLAARLYRKALARQLGVAA [MMI-0400]	28	91	17	97	31	54	222	75	81	38	84	17	91
